Values quoted from earlier work as cited in PMC5371383.

Assays:
MC1R (Gallus gallus) = MC1R (Gallus gallus) (UniProt P55167)
MC1R (Homo sapiens) = MC1R (Homo sapiens) (UniProt Q01726)
UniProt Q01726, sequence (Q01726 whole entry): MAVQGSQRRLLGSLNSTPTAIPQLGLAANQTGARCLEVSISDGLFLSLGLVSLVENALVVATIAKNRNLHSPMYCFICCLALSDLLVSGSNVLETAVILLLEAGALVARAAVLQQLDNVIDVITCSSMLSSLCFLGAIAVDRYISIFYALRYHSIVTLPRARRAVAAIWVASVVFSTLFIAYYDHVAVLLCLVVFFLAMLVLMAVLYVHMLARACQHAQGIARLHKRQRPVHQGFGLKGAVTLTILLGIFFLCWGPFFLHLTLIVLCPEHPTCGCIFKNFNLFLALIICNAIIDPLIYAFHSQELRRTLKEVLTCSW

UniProt P55167, sequence (P55167 whole entry): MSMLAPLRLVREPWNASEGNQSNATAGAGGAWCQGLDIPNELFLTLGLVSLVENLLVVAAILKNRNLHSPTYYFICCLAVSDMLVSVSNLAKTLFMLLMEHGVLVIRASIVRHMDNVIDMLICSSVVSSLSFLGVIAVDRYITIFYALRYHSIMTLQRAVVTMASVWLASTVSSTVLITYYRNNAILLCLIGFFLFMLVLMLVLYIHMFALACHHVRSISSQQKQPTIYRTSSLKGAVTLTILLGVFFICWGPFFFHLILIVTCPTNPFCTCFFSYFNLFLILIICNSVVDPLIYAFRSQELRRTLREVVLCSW

α-MSH (from UniProt P01189)
Kd (MC1R (Gallus gallus)): 363 nM
Kd (MC1R (Homo sapiens)): 0.21 nM
